Changes are numbered by the printed parent chain.
B1: Humanized 3F1 VL1,VH2 (antibody, V domains shown)
VH: QVQLVQSGAEVKKPGASVKISCKASGYTFTDHAIHWVRQAPGQGLEWIGYISPGNGDIKYNEKFKDRVTLTADKSSSTASMHLRSLRSDDTAVYFCKRSLLALDYWGQGTLVTVSS
VL: DIQMTQSPSSLSASVGDRVTITCKASQDVGTNIAWYQQKPGKAPKVLIYSASTRHTGVPSRFSGSGSGTDFTLTISSLQPEDFATYFCQQYSSFPLTFGQGTKVEIK
B2: Humanized 3F1 VL1,VH4 (antibody, V domains shown)
VH: B1 VH with Q1E, N55S
VL: B1 VL
B3: Humanized 3F1 VL1,VH3 (antibody, V domains shown)
VH: B1 VH with Q1E, I20V, I48M, N55S, L70M, S80Y, H82Q
VL: B1 VL
B4: Humanized 2G12-2B2 VL0,VH3 (antibody, V domains shown)
VH: EVQLVQSGAEVKKPGASVKVSCKASGYTFTDHAIHWVRQAPGQGLEWMGYFSPGNDDIKYNEKFRGRVTMTADKSSSTAYMELRSLRSDDTAVYFCKRSLSTPYWGQGTLVTVSS
VL: DIVMTQSPDSLAVSLGERATINCKSSQSLLNRGNHKNYLTWYQQKPGQPPKLLIYWASTRESGVPDRFSGSGSGTDFTLTISSLQAEDVAVYYCQNDYTYPYTFGQGTKVEIK
B5: Humanized 2G12-2B2 VL0,VH2 (antibody, V domains shown)
VH: B4 VH with E1Q, V20I, M48I, M70L
VL: B4 VL
B6: Humanized 2G12-2B2 VL0,VH1 (antibody, V domains shown)
VH: B4 VH with E1Q
VL: B4 VL
B7: Humanized 2G12-2B2 VL2,VH1 (antibody, V domains shown)
VH: B4 VH with E1Q
VL: B4 VL with A19V, I21M, N22S

biological target: bovine submaxillary mucin (bovine); test: ELISA on BSM-coated wells; periodate-sensitive signal

EC50 [nM]	Binder
1.4	B1
6.5	B2
12.2	B3
4.2	B4
1.8	B5
4.5	B6
4.4	B7

biological target: bovine submaxillary mucin (bovine); test: ELISA on BSM-coated wells; antibody from one liter production

EC50 [nM]	Binder
0.57	B1
0.8	B4
